Assay results published in US12099068B2, “Biomarkers for graft-versus-host disease” (Incyte Corporation, priority 2018, dated 2024).

Tested on: plasma proteins
Assay: Plasma proteins modulated between baseline and day 28 in responders (CR, VGPR, PR; n = 19), Example 6 (Table 13)
Type: in vivo, human
Conditions: plasma protein (OLINK NPX); responders (CR, VGPR, PR; n = 19); itacitinib 200 mg or 300 mg QD with corticosteroids; day 28 vs baseline
Method in brief: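 Plasma at baseline/screening and day 28 profiled for >1000 proteins by OLINK proximity extension assay, reported as NPX (log2). Steroid-naive and steroid-refractory patients pooled. Paired and unpaired t tests, ANOVA and Pearson correlation applied; significance at P<0.05.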

B1: SIGLEC10 (protein, UniProt Q96LC7 17-697, looked up)
Sialic acid-binding Ig-like …: MDGRFWIRVQESVMVPEGLCISVPCSFSYPRQDWTGSTPAYGYWFKAVTETTKGAPVATNHQSREVEMSTRGRFQLTGDPAKGNCSLVIRDAQMQDESQYFFRVERGSYVRYNFMNDGFFLKVTALTQKPDVYIPETLEPGQPVTVICVFNWAFEECPPPSFSWTGAALSSQGTKPTTSHFSVLSFTPRPQDHNTDLTCHVDFSRKGVSAQRTVRLRVAYAPRDLVISISRDNTPALEPQPQGNVPYLEAQKGQFLRLLCAADSQPPATLSWVLQNRVLSSSHPWGPRPLGLELPGVKAGDSGRYTCRAENRLGSQQRALDLSVQYPPENLRVMVSQANRTVLENLGNGTSLPVLEGQSLCLVCVTHSSPPARLSWTQRGQVLSPSQPSDPGVLELPRVQVEHEGEFTCHARHPLGSQHVSLSLSVHYSPKLLGPSCSWEAEGLHCSCSSQASPAPSLRWWLGEELLEGNSSQDSFEVTPSSAGPWANSSLSLHGGLSSGLRLRCEAWNVHGAQSGSILQLPDKKGLISTAFSNGAFLGIGITALLFLCLALIIMKILPKRRTQTETPRPRFSRHSTILDYINVVPTAGPLAQKRNQKATPNSPRTPLPPGAPSPESKKNQKKQYQLPSFPEPKSSTQAPESQESQEELHYATLNFPGVRPRPEARMPKGTQADYAEVKFQ
  Fold Change, Decreased Expression from Baseline to Day 28: −1.4974

B2: NQO2 (protein, UniProt P16083 1-231, looked up)
Ribosyldihydronicotinamide …: MAGKKVLIVYAHQEPKSFNGSLKNVAVDELSRQGCTVTVSDLYAMNLEPRATDKDITGTLSNPEVFNYGVETHEAYKQRSLASDITDEQKKVREADLVIFQFPLYWFSVPAILKGWMDRVLCQGFAFDIPGFYDSGLLQGKLALLSVTTGGTAEMYTKTGVNGDSRYFLWPLQHGTLHFCGFKVLAPQISFAPEIASEEERKGMVAAWSQRLQTIWKEEPIPCTAHWHFGQ
  Fold Change, Increased Expression from Baseline to Day 28: 1.0895

B3: PRTG (protein, UniProt Q2VWP7 36-1150, looked up)
Protogenin: FSELSFVKEPQDVTVTRKDPVVLDCQAHGEVPIKVTWLKNGAKMSENKRIEVLSNGSLYISEVEGRRGEQSDEGFYQCLAMNKYGAILSQKAHLALSTISAFEVQPISTEVHEGGVARFACKISSHPPAVITWEFNRTTLPMTMDRITALPTGVLQIYDVSQRDSGNYRCIAATVAHRRKSMEASLTVIPAKESKSFHTPTIIAGPQNITTSLHQTVVLECMATGNPKPIISWSRLDHKSIDVFNTRVLGNGNLMISDVRLQHAGVYVCRATTPGTRNFTVAMATLTVLAPPSFVEWPESLTRPRAGTARFVCQAEGIPSPKMSWLKNGRKIHSNGRIKMYNSKLVINQIIPEDDAIYQCMAENSQGSILSRARLTVVMSEDRPSAPYNVHAETMSSSAILLAWERPLYNSDKVIAYSVHYMKAEGLNNEEYQVVIGNDTTHYIIDDLEPASNYTFYIVAYMPMGASQMSDHVTQNTLEDVPLRPPEISLTSRSPTDILISWLPIPAKYRRGQVVLYRLSFRLSTENSIQVLELPGTTHEYLLEGLKPDSVYLVRITAATRVGLGESSVWTSHRTPKATSVKAPKSPELHLEPLNCTTISVRWQQDVEDTAAIQGYKLYYKEEGQQENGPIFLDTKDLLYTLSGLDPRRKYHVRLLAYNNIDDGYQADQTVSTPGCVSVRDRMVPPPPPPHHLYAKANTSSSIFLHWRRPAFTAAQIINYTIRCNPVGLQNASLVLYLQTSETHMLVQGLEPNTKYEFAVRLHVDQLSSPWSPVVYHSTLPEAPAGPPVGVKVTLIEDDTALVSWKPPDGPETVVTRYTILYASRKAWIAGEWQVLHREGAITMALLENLVAGNVYIVKISASNEVGEGPFSNSVELAVLPKETSESNQRPKRLDSADAKVYSGYYHLDQKSMTGIAVGVGIALTCILICVLILIYRSKARKSSASKTAQNGTQQLPRTSASLASGNEVGKNLEGAVGNEESLMPMIMPNSFIDAKGGTDLIINSYGPIIKNNSKKKWFFFQDSKKIQVEQPQRRFTPAVCFYQPGTTVLISDEDSPSSPGQTTSFSRPFGVAADTEHSANSEGSHETGDSGRFSHESNDEIHLSSVISTTPPNL
  Fold Change, Increased Expression from Baseline to Day 28: 1.1026

B4: SKAP1 (protein, UniProt Q86WV1 1-359, looked up)
Src kinase-associated …: MQAAALPEEIRWLLEDAEEFLAEGLRNENLSAVARDHRDHILRGFQQIKARYYWDFQPQGGDIGQDSSDDNHSGTLGLSLTSDAPFLSDYQDEGMEDIVKGAQELDNVIKQGYLEKKSKDHSFFGSEWQKRWCVVSRGLFYYYANEKSKQPKGTFLIKGYGVRMAPHLRRDSKKESCFELTSQDRRSYEFTATSPAEARDWVDQISFLLKDLSSLTIPYEEDEEEEEKEETYDDIDGFDSPSCGSQCRPTILPGSVGIKEPTEEKEEEDIYEVLPDEEHDLEEDESGTRRKGVDYASYYQGLWDCHGDQPDELSFQRGDLIRILSKEYNMYGWWVGELNSLVGIVPKEYLTTAFEVEER
  Fold Change, Decreased Expression from Baseline to Day 28: −1.8075

B5: FCRL5 (protein, UniProt Q96RD9 16-977, looked up)
Fc receptor-like protein 5: QFARTPRPIIFLQPPWTTVFQGERVTLTCKGFRFYSPQKTKWYHRYLGKEILRETPDNILEVQESGEYRCQAQGSPLSSPVHLDFSSASLILQAPLSVFEGDSVVLRCRAKAEVTLNNTIYKNDNVLAFLNKRTDFHIPHACLKDNGAYRCTGYKESCCPVSSNTVKIQVQEPFTRPVLRASSFQPISGNPVTLTCETQLSLERSDVPLRFRFFRDDQTLGLGWSLSPNFQITAMWSKDSGFYWCKAATMPYSVISDSPRSWIQVQIPASHPVLTLSPEKALNFEGTKVTLHCETQEDSLRTLYRFYHEGVPLRHKSVRCERGASISFSLTTENSGNYYCTADNGLGAKPSKAVSLSVTVPVSHPVLNLSSPEDLIFEGAKVTLHCEAQRGSLPILYQFHHEGAALERRSANSAGGVAISFSLTAEHSGNYYCTADNGFGPQRSKAVSLSVTVPVSHPVLTLSSAEALTFEGATVTLHCEVQRGSPQILYQFYHEDMPLWSSSTPSVGRVSFSFSLTEGHSGNYYCTADNGFGPQRSEVVSLFVTVPVSRPILTLRVPRAQAVVGDLLELHCEAPRGSPPILYWFYHEDVTLGSSSAPSGGEASFNLSLTAEHSGNYSCEANNGLVAQHSDTISLSVIVPVSRPILTFRAPRAQAVVGDLLELHCEALRGSSPILYWFYHEDVTLGKISAPSGGGASFNLSLTTEHSGIYSCEADNGLEAQRSEMVTLKVAVPVSRPVLTLRAPGTHAAVGDLLELHCEALRGSPLILYRFFHEDVTLGNRSSPSGGASLNLSLTAEHSGNYSCEADNGLGAQRSETVTLYITGLTANRSGPFATGVAGGLLSIAGLAAGALLLYCWLSRKAGRKPASDPARSPSDSDSQEPTYHNVPAWEELQPVYTNANPRGENVVYSEVRIIQEKKKHAVASDPRHLRNKGSPIIYSEVKVASTPVSGSLFLASSAPHR
  Fold Change, Decreased Expression from Baseline to Day 28: −1.3113
